The text below walks through data of patent US6579848B1, “Depigmenting activity of agouti signal protein and peptides thereof” (The United States of America as represented by the …, priority 1995, dated 2003).

For data set [1], the system named is melan-a cells. In words: Melanin production assay on extracts of treated melan-a cells. Type of data set: cell-based, murine. The note with it: extracts of melan-a cells cultured 5 days; 10 nM. The protocol:
(§1) Assays for melanogenic catalytic activities as described below were carried out at pH 6.8, 37° C. for 60 minutes. (1) Tyrosine hydroxylase activity was measured using the [^3H]tyrosine assay (Hearing and Ekel, 1976; Hearing, 1987). This method specifically measures the tritiated water produced during the hydroxylation of tyrosine to DOPA. (2) DOPA oxidase activity was measured using incorporation of [3-^14C]DOPA into acid-insoluble melanin as detailed previously (Aroca et al., 1993). (3) DOPAchrome tautomerase activity was measured by HPLC as the disappearance of DOPAchrome substrate and the production of DHICA rather than DHI; data are converted to pmol products by comparison with known standards. The HPLC assay was detailed previously (Palumbo et al., 1987; Tsukamoto et al., 1992). (4) DHI oxidase and DHICA oxidase activities were measured by HPLC as the disappearance of these substrates from reaction mixtures compared to controls for spontaneous auto-oxidation; data are converted to pmol by comparison with known standard (Aroca et al., 1993). (5) Melanin production was measured using incorporation of [^14C]tyrosine into acid-insoluble melanin, also as detailed previously (Hearing and Ekel, 1976; Hearing, 1987); pmol melanin produced are calculated from the radioactive product. […]

Data set [2] deals with MSH receptor. In words: Northern blotting of MSH receptor RNA in melan-a cells. Type of data set: cell-based, murine. The note with it: for RNA level of MSH receptor: 10 nM, 5 days.
Description: Briefly, 2.0 μg of mRNA, isolated using a total RNA isolation kit and mRNA purification kit (Promega, Madison, Wis.), were electrophoresed and then blotted to Sure-Blot nylon membranes (Oncor, Gaithersburg, Md.), hybridized with ^32P-labeled probes, dehybridized and rehybridized with other probes again as necessary.
The effects of agouti protein on expression of TRP1, TRP2, and the MSH receptor were examined.
Total RNA was extracted from cells using an RNeasy total RNA isolation kit (QIAGEN, Catsworth, Calif.), following the manufacturer's instructions. 20 μg of total RNA was denatured, electrophoresed through 1.0% agarose gels, and transferred overnight at 23° C. to SureBlot nylon hybridization membranes (Oncor, Gaithersburg, Md.) in the standard manner. Filters were prehybridized for 3 hours at 45° C. with Hybrisol I solution (Oncor, 50% formamide, 10% dextran sulfate, 1% SDS and blocking reagent), and then hybridized with a ^32P-labeled probe. […] A commercially available cDNA probe specific for glyceraldehyde-3-phospho-dehydrogenase (GAPDH) was used to standardize RNA loading on the blots. The cDNA probes were labeled using random primer extension and heated to 100° C. for 10 minutes, then cooled on ice for 10 minutes prior to adding to the hybridization solution. Hybridization was performed with the radiolabeled probes in Hybrisol I (3×10^7 cpm/10 ml) overnight at 45° C. with gentle shaking. Following the incubation, the blots were washed for 10 minutes at 23° C. with 2×SSC/10% SDS, then for 10 minutes with 0.2×SSC/0.5% SDS, and finally for 10 minutes with 0.1×SSC/0.1% SDS. The blots were then exposed in phosphoroimager cassettes at 23° C. for 1 hour and the densities of the bands were scanned using ImageQuant software. The % control for each probe was corrected for initial loading using comparison with the GAPDH standard. […] This was repeated as necessary until no remaining probe could be detected.
In data set [3] the test system is tyrosinase. Nature of the data set: Tyrosine hydroxylase enzyme assay on extracts of treated melan-a cells. The note with it: extracts of melan-a cells cultured 5 days; 10 nM. It counts as cell-based, murine. The procedure:
as §1

For data set [4], the system named is tyrosinase. In words: DOPA oxidase enzyme assay on extracts of treated melan-a cells. It counts as cell-based, murine. The following applies: extracts of melan-a cells cultured 5 days; 10 nM. The procedure:
as §1

The target of a further data set is MC1-R. In words: Inhibition of activation of the MC1-R. It counts as biochemical. The following applies: preparation ≧90% pure. An excerpt:
(§2) Recombinant mouse ASP was generated and purified using a baculovirus expression system as described in Ollmann et al. (in preparation). […] The experiment described in FIG. 2 has also been repeated with an ASP preparation ≧99% pure with virtually identical results.

Data set [5] deals with MSH receptor. Nature of the data set: Northern blotting of MSH receptor RNA in B16F10 melanoma cells. It counts as cell-based. The following applies: B16F10 murine melanoma cells, 10 nM, 5 days. The protocol:
(§3) The melan-a melanocyte cell line was used as described in Example 1. This clonal line was derived from C57B1 nonagouti black mice. The growth medium was minimum essential medium containing 200 nM TPA. B16F10 melanoma cells were also used to compare the effect of agouti protein with melan-a. These cells were grown in Dulbecco's modified Eagle medium.
(§4) Recombinant agouti protein was purified from baculovirus system by Dr. Michael Ollmann in Dr. Gregory Barsh's laboratory by methods known in the art. 2×10^6 cells were seeded per 15 cm diameter dish. The medium was changed everyday, and fresh agouti protein and/or αMSH added everyday usually at 10 nM. To examine transcriptional regulation, total RNA was isolated and Northern blotting performed by methods described in Example 1. The A26 probe to the MSH-R was provided by Dr. R. Cone and is described in Mountjoy et al. Science 257:1248-1251, 1992. At the translational level, metabolic labeling was used in conjunction with immunoprecipitation as described in Example 1. Western blotting and enzyme assay was used to examine function.
(§5) The effect of agouti protein and MSH observed for melan-a cells was confirmed using B16F10 murine melanoma cells. Similar effects were observed (FIG. 13).

Data set [6] deals with melan-a murine melanocytes. In words: Chemical analysis of eumelanin and pheomelanin contents of melan-a melanocytes. It counts as cell-based. The note with it: black melan-a murine melanocytes in vitro. The protocol:
Chemical degradation and analysis of eumelanin and pheomelanin contents were performed and quantitated as previously reported (Ito and Fujita, 1985).

Data set [7] is described as follows: Retention of activity at 37° in water or tissue culture media. It counts as physicochemical.
Source text: as §2

Data set [8] relates to tyrosinase. In words: Northern blotting of tyrosinase RNA in B16F10 melanoma cells. Type of data set: cell-based. The following applies: B16F10 murine melanoma cells, 10 nM, 5 days. The procedure: as §3, §4, §5
Data set [9] concerns melan-a cells. In words: Pigmentation and ultrastructure of melan-a cells. It counts as cell-based, murine. The procedure:
Cells were harvested, centrifuged for 5 minutes at 14,000 g at 4° C., and fixed for 2 hours at 23° C. in 2% glutaraldehyde-2% paraformaldehyde in 0.1 M sodium cacodylate buffer, pH 7.3; the fixative was then removed and the samples were stored in phosphate-buffered saline containing 2% sucrose at 4° C. Samples were subsequently processed with graded alcohols and embedded in epoxy resin for electron microscopy in the usual manner. Thin sections were stained with uranyl acetate and lead citrate, viewed and photographed with a Zeiss EM10 electron microscope, as previously detailed (Prota et al., 1995).

As for “α-melanocyte stimulating hormone [MSH, reference compound]”, the melanin production in the data set with melan-a cells [1] came to 6.3 ± 0.5 pmol/μg protein/hr. Also, the “RNA level of MSH receptor” value in the data set with MSH receptor [2] was “no significant increase”. This molecule displayed a tyrosine hydroxylase in the data set with tyrosinase [3] of 8.7 ± 2.8 pmol/μg protein/hr. In the data set with tyrosinase [4], the DOPA oxidase was found to be 197.5 ± 17.4 pmol/μg protein/hr.

B1: agouti protein: Recombinant murine agouti signal protein purified from a baculovirus expression system (protein)
chain: MDVTRLLLATLVSFLCFFTVHSHLALEETLGDDRSLRSDSSMNSLDFSSVSIVALNKKSKKISRKEAEKRKRSSKKKASMKKVARPPPPSPCVATRDSCKPPAPACCDPCASCQCRFFGSACTCRVLNPNC
In the case of B1, the melanin production with melan-a cells [1] was 0.22 ± 0.0 pmol/μg protein/hr. The affinity at MC1-R, expressed as Ki, was 0.22 nM. For the same molecule, the MSH receptor expression entry in the data set with MSH receptor [5] was “elevated”. In [6], the eumelanin production entry is recorded as “significantly decreased” and the synthesis of pheomelanin entry is reported as “increased”. For the same molecule, in [7], the “time for which activity is retained” value was “more than 48 hours”. In addition, the “RNA level of MSH receptor” value in the data set with MSH receptor [2] was “no significant effect”. Moreover, the “level of RNA for the MSH receptor” value with MSH receptor [2] (24 hours, different concentrations) was “no significant effect”. For the same molecule, the “tyrosinase RNA” value in the data set with tyrosinase [8] is listed as “did not reduce tyrosinase RNA below baseline”. The molecule also displayed a tyrosine hydroxylase in the data set with tyrosinase [3] of −1.2 ± 0.2 pmol/μg protein/hr. Also, the “pigmentation of the cells” value in the data set on melan-a cells [9] (black melan-a murine melanocytes in vitro) is given as “markedly inhibited”. In the data set on melan-a cells [9] (melan-a cells, 10 nM, 5 days), the “amount of melanosomes (ultrastructural study)” value is reported as “decreased” and the “melanosome structure (ultrastructural study)” value was “pheomelanosome-like structures were found”. Further, the “color of cell pellet” value in the data set with melan-a cells [9] (melan-a cells, 10 nM, 5 days incubation) is given as “changed from black to light brown”. Besides, the DOPA oxidase in the data set with tyrosinase [4] is −2.6 ± 3.4 pmol/μg protein/hr.
